One protein from PMC11975207, “One‐Pot Hetero‐Di‐C‐Glycosylation of the Natural Polyphenol Phloretin by a Single C‐Glycosyltransferase With Broad Sugar Substrate Specificity” (Biotechnology and Bioengineering, 2025) can be followed below.

Holding throughout (assay): HPLC of UDP release, initial rates, Michaelis-Menten fit
Holding throughout (type): biochemical, Citrus japonica
Details in all cases: 1.0 mM phloretin as acceptor, pH 8.0, 30 °C, donor 20-800 µM

Substrate in series [1]: O=c1ccn([C@@H]2O[C@H](CO[P@@](=O)(O)O[P@@](=O)(O)O[C@H]3O[C@H](CO)[C@@H](O)[C@H](O)[C@H]3O)[C@@H](O)[C@H]2O)c(=O)[nH]1
Substrate in series [2]: O=c1ccn([C@@H]2O[C@H](COP(=O)(O)OP(=O)(O)O[C@H]3OC[C@@H](O)[C@H](O)[C@H]3O)[C@@H](O)[C@H]2O)c(=O)[nH]1
Substrate in series [3]: O=c1ccn([C@@H]2O[C@H](COP(=O)(O)OP(=O)(O)O[C@H]3O[C@H](CO)[C@H](O)[C@H](O)[C@H]3O)[C@@H](O)[C@H]2O)c(=O)[nH]1

B1: FcCGT (Citrus japonica) (protein)
chain: MSDSGGFDSHPHVALIPSAGMGHLTPFLRLAASLVQHHCRVTLITTYPTVSLAETQHVSHFLSAYPQVTEKRFHLLPFDPNSANATDPFFLRWEAIRRSAHLLAPLLSPPLSALITDVTLISAVLPVTINLHLPNYVLFTASARMFSLTASFPAIVASKSTSSGSVEFDDDFIEIPGLPPIPLSSVPPAVMDSKSLFATSFLENGNSFVKSNGVLINSFDALEADTLVALNGRRVVAGLPPVYAVGPLLPCEFEKRDDPSTSLILKWLDDQPEGSVVYVSFGSRLALSMEQTKELGNGLLSSGCRFLWVVKGKTVDKEDEESLKNVLGHELMEKIKDQGLVVKNWVDQDKVLSHRAVGGFVSHGGWNSLVEAARHGVPVLVWPQFGDQKINAEAVESAGLGMWVRSWGWGTELRAKGDEIGLKIKDLMANDFLREQAKRIEEEARKAIGVGGSSERTFKELIDKWKCNNNTH
notes: recombinant purified; polypeptide Mr 53600; construct details in supplement and Li et al. 2023
For the protein B1, the Km stood at 55 ± 2.4 µM in series [1], 122 ± 11 µM in series [2] and 432 ± 26 µM in series [3]. Moreover, the values for the kcat in series [1], in series [2] and in series [3] were 139 ± 2.5 min–1, 15 ± 0.8 min–1 and 0.28 ± 0.01 min–1, respectively.
